Data from US9371362B2, “Prostate specific antigen agents and methods of using same for prostate cancer imaging” (VisEn Medical, Inc., priority 2012, dated 2016).
Non-standard residues stand in square brackets, D forms with d. Y‑mPEG ~40 kDa = Y-mPEG amine, ~40 kDa, coupled at C-terminal carboxyl; Hyp = O=C(O)[C@@H]1C[C@@H](O)CN1; Chg = N[C@H](C(=O)O)C1CCCCC1

Columns and labels:
complexed PSA = complexed PSA (Homo sapiens, UniProt P07288); assay: In vitro activation of agent by complexed (inactive) PSA, kinetic fluorescence reading; assay type: biochemical; settings: 0.5 μM agent, optimized buffer pH 7.5
complexed PSA, sequence (P07288 25-261): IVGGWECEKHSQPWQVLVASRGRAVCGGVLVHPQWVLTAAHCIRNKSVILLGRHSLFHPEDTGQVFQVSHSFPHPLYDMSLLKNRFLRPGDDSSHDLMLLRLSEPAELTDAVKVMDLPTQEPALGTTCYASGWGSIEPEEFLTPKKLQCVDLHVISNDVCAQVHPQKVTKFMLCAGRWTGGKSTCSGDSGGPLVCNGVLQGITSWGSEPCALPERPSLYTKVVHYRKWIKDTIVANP
complexed PSA, sequence (P01011 24-423 partner): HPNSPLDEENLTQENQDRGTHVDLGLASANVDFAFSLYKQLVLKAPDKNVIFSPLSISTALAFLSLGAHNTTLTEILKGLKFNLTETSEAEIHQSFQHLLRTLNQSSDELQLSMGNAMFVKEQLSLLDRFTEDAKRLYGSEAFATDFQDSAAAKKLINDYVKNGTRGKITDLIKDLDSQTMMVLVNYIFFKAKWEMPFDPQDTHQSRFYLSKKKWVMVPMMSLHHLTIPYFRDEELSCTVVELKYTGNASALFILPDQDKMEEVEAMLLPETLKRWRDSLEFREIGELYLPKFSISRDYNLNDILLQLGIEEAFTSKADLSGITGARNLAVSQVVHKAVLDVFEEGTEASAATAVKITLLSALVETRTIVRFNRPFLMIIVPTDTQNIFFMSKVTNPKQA
Procedure: (§1) Data in FIG. 1 depict activation of the prostate specific antigen activatable agents (compound A10).
(§2) Kinetic fluorescence readings were performed in a Gemini fluorescence plate reader at different times after adding the enzyme.
(§3) In this experiment, fluorescence is only associated with the test agents (compound A10) in the prescence of active PSA described herein.

[1] = system: LNCaP tumors (PSA+) and PC3 (PSA−) tumors; assay: In vivo specificity imaging, LNCaP (PSA+) versus PC3 (PSA−) tumors, FMT2500; settings: male Nu/Nu mice, 2 nmoles intravenously, imaged 24 hours later
Procedure: FIG. 2B is a histogram comparing fluorescence between prostate cancer expressing (PSA positive) and control (PSA negative) mice injected with the prostate specific antigen activatable agent (compound A10) and imaged tomographically.
Imaging studies were performed in LNCaP tumors (PSA+) and PC3 (PSA−) tumors tumor-bearing male Nu/Nu mice. The mice were injected intravenously with 2 nmoles of compound A10 and imaged 24 hours later on the FMT2500 (PerkinElmer Inc., Waltham, Mass.). Tumor fluorescence from positive and control mice was quantified and plotted.

[2] = system: human prostate PSA+ LNCaP tumor; assay: In vivo imaging of prostate cancer, FMT2500 reflectance and tomography, IVIS Spectrum; settings: male Nu/Nu mice, 2 nmoles intravenously, imaged 6 hours later
Procedure: FIG. 2A depicts epi-fluorescent reflectance and tomographic images for sites of active PSA detected in prostate cancer expressing mice six hours post-injection using a prostate specific antigen activatable agent (compound A10).
As depicted in FIG. 2A, imaging studies were performed in human prostate PSA^+ LNCaP tumor-bearing male Nu/Nu mice. The mice were injected intravenously with 2 nmoles of test agent (compound A10) and were imaged 6 hours later on the FMT2500 (PerkinElmer Inc., Waltham, Mass.) (FMT 2D for epifluorescence, FMT 3D for tomography) in reflectance and tomographic modes, and on the IVIS Spectrum (PerkinElmer Inc., Waltham, Mass.).

active PSA = active PSA (Homo sapiens, UniProt P07288); assay: In vitro activation (cleavage) of agent by enzymatically active PSA, kinetic fluorescence reading; assay type: biochemical; settings: 0.5 μM agent, 0.1 μM activated enzyme, TCNB buffer pH 7.5
active PSA, sequence (P07288 25-261): as the sequence (P07288 25-261) above
Procedure: as §1, §2, §3

activation (fluorescence) in the presence of complexed PSA (complexed PSA): not complexed PSA | activation (fluorescence) in the presence of active PSA (active PSA): activated in the presence of active PSA
Substance: A10 (Ac-K[Hyp]SS[Chg]QSSK-{Y‑mPEG ~40 kDa}; also: conjugated with NHS ester of fluorophore F8, sites not given here) [Compound A10]
specificity of tumor fluorescence for PSA positive over PSA negative tumors [1]: specificity the prostate specific antigen activatable agents have for tumors containing enzymatically active PSA over PSA negative tumors in vivo | detection of sites of enzymatically active PSA in vivo [2]: Sites of active PSA are detected in the same locations for both reflectance and tomographic imaging
